Results published in patent US8748182B2, “Mutant proteins and methods for producing them” (Heptares Therapeutics Limited, priority 2007, dated 2014).
Numbering of substitutions follows the chain as printed. Numbers in names are those of the source.

B1: A90L: NTR point mutant (protein, UniProt P20789 1-424, looked up, variant A90L)
Neurotensin receptor type 1: MHLNSSVPQGTPGEPDAQPFSGPQSEMEATFLALSLSNGSGNTSESDTAGPNSDLDVNTDIYSKVLVTAIYLALFVVGTVGNSVTAFTLLRKKSLQSLQSTVHYHLGSLALSDLLILLLAMPVELYNFIWVHHPWAFGDAGCRGYYFLRDACTYATALNVASLSVERYLAICHPFKAKTLMSRSRTKKFISAIWLASALLAIPMLFTMGLQNRSGDGTHPGGLVCTPIVDTATVKVVIQVNTFMSFLFPMLVISILNTVIANKLTVMVHQAAEQGRVCTVGTHNGLEHSTFNMTIEPGRVQALRHGVLVLRAVVIAFVVCWLPYHVRRLMFCYISDEQWTTFLFDFYHYFYMLTNALFYVSSAINPILYNLVSANFRQVFLSTLACLCPGWRHRRKKRPTFSRKPNSMSSNHAFSTSATRETLY
B2: K397A: NTR point mutant (protein, UniProt P20789 1-424, looked up, variant K397A)
Neurotensin receptor type 1: B1 Neurotensin receptor type 1 with L90A, K397A
B3: 1253A: NTR point mutant (Ile 253) (protein, UniProt P20789 1-424, looked up, variant I253A)
Neurotensin receptor type 1: B1 Neurotensin receptor type 1 with L90A, I253A
B4: V360A: NTR point mutant (protein, UniProt P20789 1-424, looked up, variant V360A)
Neurotensin receptor type 1: B1 Neurotensin receptor type 1 with L90A, V360A
B5: R183A: NTR point mutant (protein, UniProt P20789 1-424, looked up, variant R183A)
Neurotensin receptor type 1: B1 Neurotensin receptor type 1 with L90A, R183A
B6: L310A: NTR point mutant (protein, UniProt P20789 1-424, looked up, variant L310A)
Neurotensin receptor type 1: B1 Neurotensin receptor type 1 with L90A, L310A
B7: A385L: NTR point mutant (protein, UniProt P20789 1-424, looked up, variant A385L)
Neurotensin receptor type 1: B1 Neurotensin receptor type 1 with L90A, A385L
B8: A86L: NTR point mutant (protein, UniProt P20789 1-424, looked up, variant A86L)
Neurotensin receptor type 1: B1 Neurotensin receptor type 1 with A86L, L90A
B9: L308A: NTR point mutant (protein, UniProt P20789 1-424, looked up, variant L308A)
Neurotensin receptor type 1: B1 Neurotensin receptor type 1 with L90A, L308A
B10: Y349A: NTR point mutant (protein, UniProt P20789 1-424, looked up, variant Y349A)
Neurotensin receptor type 1: B1 Neurotensin receptor type 1 with L90A, Y349A
B11: C386A: NTR point mutant (protein, UniProt P20789 1-424, looked up, variant C386A)
Neurotensin receptor type 1: B1 Neurotensin receptor type 1 with L90A, C386A
B12: A177L: NTR point mutant (protein, UniProt P20789 1-424, looked up, variant A177L)
Neurotensin receptor type 1: B1 Neurotensin receptor type 1 with L90A, A177L
B13: G306A: NTR point mutant (protein, UniProt P20789 1-424, looked up, variant G306A)
Neurotensin receptor type 1: B1 Neurotensin receptor type 1 with L90A, G306A
B14: M250A: NTR point mutant (protein, UniProt P20789 1-424, looked up, variant M250A)
Neurotensin receptor type 1: B1 Neurotensin receptor type 1 with L90A, M250A
B15: A69L: NTR point mutant (protein, UniProt P20789 1-424, looked up, variant A69L)
Neurotensin receptor type 1: B1 Neurotensin receptor type 1 with A69L, L90A
B16: S373A: NTR point mutant (protein, UniProt P20789 1-424, looked up, variant S373A)
Neurotensin receptor type 1: B1 Neurotensin receptor type 1 with L90A, S373A
B17: T294A: NTR point mutant (protein, UniProt P20789 1-424, looked up, variant T294A)
Neurotensin receptor type 1: B1 Neurotensin receptor type 1 with L90A, T294A
B18: F342A: NTR point mutant (protein, UniProt P20789 1-424, looked up, variant F342A)
Neurotensin receptor type 1: B1 Neurotensin receptor type 1 with L90A, F342A
B19: N370A: NTR point mutant (protein, UniProt P20789 1-424, looked up, variant N370A)
Neurotensin receptor type 1: B1 Neurotensin receptor type 1 with L90A, N370A
B20: 1260A: NTR point mutant (Ile 260) (protein, UniProt P20789 1-424, looked up, variant I260A)
Neurotensin receptor type 1: B1 Neurotensin receptor type 1 with L90A, I260A
B21: V313A: NTR point mutant (protein, UniProt P20789 1-424, looked up, variant V313A)
Neurotensin receptor type 1: B1 Neurotensin receptor type 1 with L90A, V313A
B22: H393A: NTR point mutant (protein, UniProt P20789 1-424, looked up, variant H393A)
Neurotensin receptor type 1: B1 Neurotensin receptor type 1 with L90A, H393A
B23: V309A: NTR point mutant (protein, UniProt P20789 1-424, looked up, variant V309A)
Neurotensin receptor type 1: B1 Neurotensin receptor type 1 with L90A, V309A
B24: F380A: NTR point mutant (protein, UniProt P20789 1-424, looked up, variant F380A)
Neurotensin receptor type 1: B1 Neurotensin receptor type 1 with L90A, F380A
B25: D345A: NTR point mutant (protein, UniProt P20789 1-424, looked up, variant D345A)
Neurotensin receptor type 1: B1 Neurotensin receptor type 1 with L90A, D345A

Assay: Thermostability of neurotensin receptor (NTR) mutants (3H-neurotensin binding)
Assay type: physicochemical
Settings: for thermostability, heated in the presence of 3H-neurotensin: Ligand(+) format; for thermostability, 3H-neurotensin (agonist) binding after the heating step: heated in the absence of the agonist
Experimental: FIG. 12 Flow chart showing the two different assay formats of ligand (+) and ligand (−) used to determine receptor thermostablity.
3. Mutants tested for thermostability by heating in the absence of the agonist were re-tested using a slightly different assay where the mutants were heated in the presence of ^3H-neurotensin (Ligand(+) format in FIG. 12). […] All of these also have increased thermostability. • 5. Preferred combinations are • a. Nag7m F358A+A86L+1260A+F342A Tm 51° C. (neurotensin bound) • b. Nag7n F358A+H103A+1260A+F342A Tm 51° C. (neurotensin bound) • Wildtype NTR has a Tm of 35° C. with neurotensin bound.

| Molecule | thermostability, heated in the presence of 3H-neurotensin | thermostability, 3H-neurotensin (agonist) binding after the heating step |
| --- | --- | --- |
| B1 | improved thermostability | small but significant increase in thermostability |
| B2 | – | small but significant increase in thermostability |
| B3 | improved thermostability | – |
| B4 | improved thermostability | – |
| B5 | improved thermostability | – |
| B6 | improved thermostability | – |
| B7 | improved thermostability | small but significant increase in thermostability |
| B8 | improved thermostability | small but significant increase in thermostability |
| B9 | improved thermostability | – |
| B10 | – | small but significant increase in thermostability |
| B11 | – | small but significant increase in thermostability |
| B12 | improved thermostability | – |
| B13 | improved thermostability | – |
| B14 | improved thermostability | – |
| B15 | improved thermostability | – |
| B16 | improved thermostability | – |
| B17 | improved thermostability | – |
| B18 | improved thermostability | – |
| B19 | improved thermostability | – |
| B20 | improved thermostability | – |
| B21 | improved thermostability | – |
| B22 | – | small but significant increase in thermostability |
| B23 | improved thermostability | – |
| B24 | improved thermostability | – |
| B25 | – | small but significant increase in thermostability |
